Key:
bem1_yeast BEM1 [1] = biological target: bem1_yeast BEM1 (UniProt P29366)
bem1_yeast BEM1 [2] = biological target: bem1_yeast BEM1 (UniProt P29366); remark: listed apart in the source

bem1_yeast BEM1, sequence (P29366 whole entry): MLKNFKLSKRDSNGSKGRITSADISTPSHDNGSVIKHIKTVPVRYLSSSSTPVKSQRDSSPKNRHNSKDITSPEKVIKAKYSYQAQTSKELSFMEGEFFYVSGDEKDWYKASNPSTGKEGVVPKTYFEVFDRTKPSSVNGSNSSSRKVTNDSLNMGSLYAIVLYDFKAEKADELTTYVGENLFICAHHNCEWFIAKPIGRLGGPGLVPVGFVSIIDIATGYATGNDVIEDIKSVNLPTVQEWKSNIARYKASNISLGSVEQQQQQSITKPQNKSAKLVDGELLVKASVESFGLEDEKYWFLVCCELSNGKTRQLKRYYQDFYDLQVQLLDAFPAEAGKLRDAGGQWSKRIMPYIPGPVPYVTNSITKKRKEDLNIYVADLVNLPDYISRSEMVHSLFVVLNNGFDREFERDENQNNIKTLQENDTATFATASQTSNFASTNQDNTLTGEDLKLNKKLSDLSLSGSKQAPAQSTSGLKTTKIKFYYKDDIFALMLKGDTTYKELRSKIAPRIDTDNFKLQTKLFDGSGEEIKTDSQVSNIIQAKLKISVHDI
Cell division control protein 42 (Saccharomyces cerevisiae), P19073 Q61L, sequence (P19073 whole entry Q61L): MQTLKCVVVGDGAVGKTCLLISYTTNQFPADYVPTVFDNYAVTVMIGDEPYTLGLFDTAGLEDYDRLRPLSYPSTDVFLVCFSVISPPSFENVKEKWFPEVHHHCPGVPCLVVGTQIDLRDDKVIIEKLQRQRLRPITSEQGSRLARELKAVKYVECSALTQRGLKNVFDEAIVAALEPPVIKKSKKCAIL
Cell division control protein 42 (Saccharomyces cerevisiae), P19073 D57Y, sequence (P19073 whole entry D57Y): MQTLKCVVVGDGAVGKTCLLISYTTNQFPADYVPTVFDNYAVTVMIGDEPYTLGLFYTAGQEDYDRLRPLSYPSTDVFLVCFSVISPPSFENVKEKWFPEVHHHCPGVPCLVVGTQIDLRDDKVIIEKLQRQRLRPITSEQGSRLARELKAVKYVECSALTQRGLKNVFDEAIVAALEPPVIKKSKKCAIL

| effect of a mutation on the interaction (bem1_yeast BEM1 [1]) | effect of a mutation on the interaction (bem1_yeast BEM1 [2]) | Substance |
| --- | --- | --- |
| disrupting interaction strength |  | Cell division control protein 42 (Saccharomyces cerevisiae), P19073 D57Y |
|  | with no effect | Cell division control protein 42 (Saccharomyces cerevisiae), P19073 Q61L |

Source: IntAct's records for PubMed 11113154
